Measured values as given in patent US20210347868A1 (published 2021).
Where two headings read alike, the source gives them in different places.

Legend:
full-length synuclein [1] = assay: ITC
full-length synuclein [2] = assay: ITC; remark: listed apart in the source

| Kd (full-length synuclein [1]) | Kd (full-length synuclein [2]) | Binder |
| --- | --- | --- |
| 2800 nM |  | Asyn-323.1 (antibody, V domains shown) VH: EVQLLESGGGLVQPGGSLKLSCAASGFTFSASAMHWVRQTSDKRLEWVGRIRNKANNYATAYAASVKGRFTISRDDSKNTAYLQMNSLKTEDTAVYYCTRHLSLGGNSVDYWGQGTPVTVSS VL: DVVMTQSPLSSPVTLGQPASISCRASQSPVHSDGNTYLSWLQQRPGQPPRLLIYTISNRFPGVPDRFSGSGAGTDFTLRISRVEAEDVGVYYCMQGTQFPYTFGQGTKLEIK |
|  | 300 nM | Asyn-338.1 (antibody, V domains shown) VH: QVQLVESGGDIVQPGGSLKLSCAASGFTFKSYWMHWVRQVPGKGLFWVSRINTFGNKTSYADSVRGRFSISRDNTKSILYLQMNSLKAEDTAVYYCARSTLGSFDYWGQGTLVTVSS VL: AIQLTQSPDSLAVSLGERATINCKASQSLLYSSNNRNYLAWYQQKPGQPPKALIYWASTRESGVPDRFSGSGSGTDFTLTISSLQAEDVAVYYCHQYYTTHSFGQGTKLEIK |
|  | 1400 nM | Asyn-336.1 (antibody, V domains shown) VH: EVQLVQSGGTLVQPGGSLRLSCAASGFTFSTYAISWVRQAPGRGLEWVSFITGDGSRILYADSVRGRFSISRDNSKNTLYLQMNSLRTDDTAMYYCVFNHYWGQGTLVTVSS VL: AIQLTQSPDSLAVSLGERATINCKASQSLLYSSNNRNYLAWYQQKPGQPPKALIYWASTRESGVPDRFSGSGSGTDFTLTISSLQAEDVAVYYCHQYYTTHSFGQGTKLEIK |
